In US20250043019A1 (Janssen / Centocor, published 2025):

How the values were obtained:
[1] = biological target: T1, recombinant extracellular domain of human CD79b, short isoform (human, UniProt P40259 29-159); test: SPR Biacore 8k, antibody captured by anti-Fc, 25 C
T1 chain: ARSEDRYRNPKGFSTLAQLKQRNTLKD
Method: (§1) General Protocol for SPR Affinity Assessment: Affinity assessment of the bispecific trispecific constructs against human CD79b were measure using recombinantly expressed extracellular domain of CD79b short and long isoforms (CD9W7.001 and CD9W8.001, respectively) by Surface Plasmon Resonance (SPR) using a Biacore 8k SPR system (Biacore) at 25° C. in HBSP+ buffer. Cross-reactivity of the same antibody panel was also assessed against cyno and mouse antigens (CD9W1.001 and CD9W105.001, respectively). Briefly, a C1 sensor chip was immobilized with anti-human Fc (target immobilization levels of >400 RU) using vendor recommended amino coupling protocol. […] The association and dissociation phases were measured for 2 or 3 minutes and 30 minutes, respectively.
(§2) The raw binding sensorgrams were processed using Biacore Insight software (Biacore) by double-referencing and the processed sensorgrams were analyzed for cross-reactivity and fitted to a 1:1 Langmuir model to obtain on-rates, off-rates and affinities.

[2] = biological target: T2, recombinant extracellular domain of human CD79b, long isoform (human, UniProt P40259 29-159); test: SPR Biacore 8k, antibody captured by anti-Fc, 25 C
T2 construct: also called hu CD79b long
T2 sequence: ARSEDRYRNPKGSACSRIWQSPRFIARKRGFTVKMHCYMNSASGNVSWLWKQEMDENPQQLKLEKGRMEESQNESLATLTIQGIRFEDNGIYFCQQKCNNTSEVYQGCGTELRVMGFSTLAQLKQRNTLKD
Method: as §1, §2

[3] = biological target: T3, cynomolgus monkey CD79b antigen (cynomolgus monkey); test: SPR Biacore 8k, cyno CD79b injected up to 3000 nM
T3 construct: also called cyno CD79b; CD9W1.001
Method: as §1, §2

[4] = biological target: T4, human CD79b on the cell surface (human, UniProt P40259 29-229); test: flow cytometry, Carnaval cells, 1 h 37 C; control row of Table 10, same value as Table 8
T4 construct: Endogenous on DLBCL lines (HBL-1, OCI-Ly10, CARNAVAL, WILL-2, Daudi) or overexpressed on K562 / HEK293 cells; also called Ig-beta; B29
T4 sequence: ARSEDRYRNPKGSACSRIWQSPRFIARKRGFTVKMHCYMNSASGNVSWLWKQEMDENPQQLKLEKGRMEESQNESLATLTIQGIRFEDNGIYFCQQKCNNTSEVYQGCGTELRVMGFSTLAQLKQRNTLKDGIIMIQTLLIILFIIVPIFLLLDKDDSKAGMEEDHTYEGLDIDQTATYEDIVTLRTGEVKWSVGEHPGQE
Method: (§3) All cells were washed with BD stain buffer (BD Biosciences; Cat #554657), centrifuged at 1200 RPM for 3 minutes, with supernatant discarded. Cells were then stained for 20 minutes at 4° C. with BD stain buffer containing AlexaFluor 647 labeled anti-human IgG secondary antibody (Jackson Immuno; Cat #109-606-098) at a 1:200 dilution along with Aqua Fixable Live/Dead stain (Invitrogen; Cat #L34957) at a 1:400 dilution. All cells were washed with BD stain buffer (BD Biosciences; Cat #554657), centrifuged at 1200 RPM for 3 mins, with supernatant discarded. Cells were analyzed using Intellicyt (Sartorius) flow cytometer and mean fluorescent intensity (MFI) was generated using Forcyt software (Sartorius). MFI was graphed and EC50 values generated using GraphPad PRISM v.8. Dose response curves were generated by transforming the x axis values using the formula […]. Data was then graphed using non-linear regression curve fit analysis “log(agonist) vs. response-variable slope (four parameter)”.

[5] = biological target: T4, human CD79b on the cell surface; test: cell-based or functional assay
[6] = biological target: T4, human CD79b on the cell surface; test: flow cytometry, HBL-1 cells, 1 h 37 C; control row of Table 10, same value as Table 8
Method: as §3

[7] = biological target: T4, human CD79b on the cell surface; test: cell-based or functional assay; remark: listed apart in the source
[8] = biological target: T4, human CD79b on the cell surface; test: flow cytometry, Carnaval cells, 1 h 37 C
Method: as §3

[9] = biological target: T4, human CD79b on the cell surface; test: cell-based or functional assay; remark: listed apart in the source
[10] = biological target: T4, human CD79b on the cell surface; test: flow cytometry, HBL-1 cells, 1 h 37 C
Method: as §3

[11] = biological target: T4, human CD79b on the cell surface; test: cell-based or functional assay; remark: listed apart in the source
[12] = biological target: T5, human CD79b and CD20 co-expressed on the surface of B-lymphoma cell lines or primary B cells (human, UniProt P11836 1-297); test: flow cytometry, OCI-LY10 cells (CD79b+ CD20+), 1 h 37 C
T5 construct: whole, on cells; not a defined complex; also called CD79b+/CD20+ cells; K562 CD79b&CD20
T5 sequence 1: T4 sequence
T5 sequence 2: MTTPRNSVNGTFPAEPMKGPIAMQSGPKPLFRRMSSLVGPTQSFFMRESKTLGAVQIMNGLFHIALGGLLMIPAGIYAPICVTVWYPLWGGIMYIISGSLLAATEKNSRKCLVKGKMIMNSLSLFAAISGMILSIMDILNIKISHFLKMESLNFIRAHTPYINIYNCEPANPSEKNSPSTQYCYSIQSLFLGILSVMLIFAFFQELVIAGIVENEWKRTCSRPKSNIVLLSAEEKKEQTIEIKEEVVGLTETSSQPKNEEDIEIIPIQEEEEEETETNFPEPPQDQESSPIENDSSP
Method: as §3

[13] = biological target: T5, human CD79b and CD20 co-expressed on …; test: cell-based or functional assay
[14] = biological target: T5, human CD79b and CD20 co-expressed on …; test: flow cytometry, Carnaval cells (CD79b+ CD20+), 1 h 37 C
Method: as §3

[15] = biological target: T5, human CD79b and CD20 co-expressed on …; test: cell-based or functional assay; remark: listed apart in the source
[16] = biological target: T5, human CD79b and CD20 co-expressed on …; test: cell-based or functional assay; remark: listed apart in the source
[17] = biological target: T5, human CD79b and CD20 co-expressed on …; test: flow cytometry, HBL-1 cells (CD79b+ CD20+), 1 h 37 C
Method: as §3

[18] = biological target: T5, human CD79b and CD20 co-expressed on …; test: cell-based or functional assay; remark: listed apart in the source
[19] = biological target: T5, human CD79b and CD20 co-expressed on …; test: cell-based or functional assay; remark: listed apart in the source

B1: 79C3B651 CD79bxCD3 bispecific antibody (bispecific antibody, human IgG1, kappa, L234A L235A)
heavy: QVQLQESGPGLVKPSQTLSLTCTVSGVSISNYYWSWIRQPPGKGLEWIGRISPSGRTNYNPSLKSRVTMSLDASKNQFSLKLSSVTAADTAVYYCARGEYSGTYSYSFDIWGQGTMVTVSSASTKGPSVFPLAPSSKSTSGGTAALGCLVKDYFPEPVTVSWNSGALTSGVHTFPAVLQSSGLYSLSSVVTVPSSSLGTQTYICNVNHKPSNTKVDKKVEPKSCDKTHTCPPCPAPEAAGGPSVFLFPPKPKDTLMISRTPEVTCVVVSVSHEDPEVKFNWYVDGVEVHNAKTKPREEQYNSTYRVVSVLTVLHQDWLNGKEYKCKVSNKALPAPIEKTISKAKGQPREPQVYTLPPSREEMTKNQVSLSCAVKGFYPSDIAVEWESNGQPENNYKTTPPVLDSDGSFFLVSKLTVDKSRWQQGNVFSCSVMHEALHNRFTQKSLSLSPGK
light: DIQMTQSPSSLSASVGDRVTITCRSSQSLFDSDDGNTYLDWFQQKPGQSPKLLIQTLSYRASGVPSRFSGSGSGTDFTLTISSLQPEDFATYYCMQRMEFPLTFGGGTKVEIKRTVAAPSVFIFPPSDEQLKSGTASVVCLLNNFYPREAKVQWKVDNALQSGNSQESVTEQDSKDSTYSLSSTLTLSKADYEKHKVYACEVTHQGLSSPVTKSFNRGEC
chain: EIVLTQSPATLSASPGERVTLSCSASSSVSYMNWYQQKPGQAPRRWIYDSSKLASGVPARFSGSGSGRDYTLTISSLEPEDFAVYYCQQWSRNPPTFGGGTKVEIKGGSEGKSSGSGSESKSTGGSQVQLVQSGAEVKKPGSSVKVSCKASGYTFTRSTMHWVKQAPGQGLEWIGYINPSSAYTNYNQKFQGRVTLTADKSTSTAYMELSSLRSEDTAVYYCASPQVHYDYAGFPYWGQGTLVTVSSEPKSSDKTHTCPPCPAPEAAGGPSVFLFPPKPKDTLMISRTPEVTCVVVSVSHEDPEVKFNWYVDGVEVHNAKTKPREEQYNSTYRVVSVLTVLHQDWLNGKEYKCKVSNKALPAPIEKTISKAKGQPREPQVYTLPPSREEMTKNQVSLWCLVKGFYPSDIAVEWESNGQPENNYKTTPPVLDSDGSFFLYSKLTVDKSRWQQGNVFSCSVMHEALHNHYTQKSLSLSPGK
notes: IgG1 bispecific; CD79b Fab arm plus CD3 scFv-Fc arm; also called 79C3B651 bsAb; CD9B643 x CD3B2030-N106A
[1]
  Kd: 0.35 nM
[2]
  Kd: 0.052 nM
[3]
  Kd: > 3000 nM
[4]
  EC50: 12 nM
[5]
  Cmax (maximum cytotoxicity), donor 1: 5%
  Cmax (maximum cytotoxicity), donor 2: 13%
  Cmax (maximum cytotoxicity), donor 3: 34%
  EC50, autologous B-cell depletion, donor 3: 17 nM
[6]
  EC50: 15 nM
[7]
  IC50, T-cell killing of HBL-1 (Incucyte): 0.0325 nM
[8]
  EC50: 12 nM
[9]
  IC50, T-cell killing of OCI-Ly10 (Incucyte): 4.7 nM
[10]
  EC50: 15 nM
[11]
  IC50, CARNAVAL killing, 72 h (FACS): 0.25 nM
  IC50, HBL-1 killing, 72 h (FACS): 2.2 nM
  IC50, OCI-LY10 killing, 72 h (FACS): > 100 nM

B2: C923B99 CD79bxCD20xCD3 trispecific antibody (other)
heavy: B1 heavy
light: B1 light
chain: EIVLTQSPATLSASPGERVTLSCSASSSVSYMNWYQQKPGQAPRRWIYDSSKLASGVPARFSGSGSGRDYTLTISSLEPEDFAVYYCQQWSRNPPTFGGGTKVEIKGGSEGKSSGSGSESKSTGGSQVQLVQSGAEVKKPGSSVKVSCKASGYTFTRSTMHWVKQAPGQGLEWIGYINPSSAYTNYNQKFQGRVTLTADKSTSTAYMELSSLRSEDTAVYYCASPQVHYDYAGFPYWGQGTLVTVSSEPKSSDKTHTCPPCPAPEAAGGPSVFLFPPKPKDTLMISRTPEVTCVVVSVSHEDPEVKFNWYVDGVEVHNAKTKPREEQYNSTYRVVSVLTVLHQDWLNGKEYKCKVSNKALPAPIEKTISKAKGQPREPQVYTLPPSREEMTKNQVSLWCLVKGFYPSDIAVEWESNGQPENNYKTTPPVLDSDGSFFLYSKLTVDKSRWQQGNVFSCSVMHEALHNHYTQKSLSLSPGKGGSEGKSSGSGSESKSTGGSAIQLTQSPSSLSASVGDRVTITCRASSSVSYIHWFQQKPGKAPKPLIYATSNLASGVPSRFSGSGSGTDFTLTISSLQPEDFATYYCQQWTSNPPTFGQGTKLEIKGGSEGKSSGSGSESKSTGGSQVQLVQSGAEVKKPGSSVKVSCKASGYTFTSYNMHWVRQAPGQGLEWMGAIYPGNGDTSYAQKFQGRVTITADKSTSTAYMELSSLRSEDTAVYYCARSTYYGGDWYFNVWGQGTLVTVSS
notes: Trispecific IgG1; also called CD9B643 / CD3B2030-N106A-scFv-LH-C20B22
[1]
  Kd: 0.27 nM
[2]
  Kd: 0.04 nM
[12]
  EC50: 2 nM
[3]
  Kd: > 3000 nM
[13]
  Cmax (maximum cytotoxicity), donor 1: 35%
  Cmax (maximum cytotoxicity), donor 2: 67%
  Cmax (maximum cytotoxicity), donor 3: 66%
  EC50, autologous B-cell depletion, donor 2: 9 nM
  EC50, autologous B-cell depletion, donor 3: 23 nM
[14]
  EC50: 6 nM
[15]
  IC50, T-cell killing of HBL-1 (Incucyte): 0.0692 nM
[16]
  IC50, T-cell killing of OCI-Ly10 (Incucyte): 5.6 nM
[17]
  EC50: 8 nM
[18]
  IC50, CARNAVAL killing (Incucyte): 0.285 nM
[19]
  IC50, CARNAVAL killing, 72 h (FACS): 0.17 nM
  IC50, HBL-1 killing, 72 h (FACS): 1.68 nM
  IC50, OCI-LY10 killing, 72 h (FACS): 16.9 nM
